# Assay results: patent US10704056B2, “Constitutively active ABA receptor mutants” (The Regents of the University of California, priority 2011, dated 2020)
# Test system: HAB1
# Test: In vitro PP2C phosphatase (pNPP) receptor activation assay with HAB1
# Type: biochemical, Arabidopsis
# Conditions: 600 nM GST-HAB1, 0-4800 nM receptor, no ABA
# Protocol: Recombinant receptor proteins were produced as follows: Coding sequences were cloned into pET28 yielding 6×HIS (SEQ ID NO:173) fusions proteins and transformed into E. coli expression strain BL21. […]. Cells were stored at −80° C. before purification. After thawing, cells were sonicated on ice five times for 30 sec with 30 sec resting intervals. A cleared lysate was obtained after centrifugation at 12,000×g for 10 min and applied to 1 ml of Ni-NTA column (Qiagen) and washed with 20 column volumes of Buffer A containing 30 mM imidazole. Bound protein was eluted with 10 ml of Buffer A with 250 mM imidazole. The elutate was dialyzed against TBS. The purified recombinant proteins were then used together with recombinant phosphatases in receptor assays. In these assays, receptor activity is indicated by inhibition of phosphatase activity, as inferred from initial reaction velocities for GST-HAB1 mediated hydrolysis of the synthetic phosphatase substrate pNPP. Reactions contained 600 nM GST-HAB1 and either 0, 600, 1200, 2400 or 4800 nM 6×His-PYR1 or variants in a reaction buffer consisting of 33 mM Tris-OAc, pH 7.9, 66 mM KOAc, 0.1% BSA, 25 mM Mn(OAc)2, 50 mM pNPP. To infer the level of receptor activation with respect to fully activated wild type receptor, control reactions were also conducted using saturating levels of (+)-ABA (10 μM), and 600 nM wild type PYR1 and HAB1. Immediately after mixing proteins and substrates, reactions were monitored for hydrolysis of pNPP at A405 at ˜10 second intervals over 20 minutes using a Wallac plate reader. Reaction progressions were plotted, initial velocities calculated and converted to specific activities using a standard curve for 4-nitrophenol made in the same buffer system volumes/plate reader used for enzymatic reaction measurements. The values shown are expressed as %-control phosphatase activity levels as measured in the absence of receptor protein. The average specific activity level of GST-HAB1 utilized in our experiments was 4000 μmol/min/mg, when assayed on the phosphatase substrate pNPP in the absence of PYR1 or other receptors, as described using the methods above.
# Full length ABI1 and ABI2 were cloned into a modified pSUMO vector (LifeSensors Inc, USA) vector yielding 6×His-SUMO fusion proteins; GST-HAB1 was expressed and purified as previously described (Park et al., 2009). Mutant receptors were cloned into pET28 yielding 6×His-fusion proteins. […]. The cultures were pre-incubated 2 hours at 30° C. and, for PP2C expression, media was supplemented with 4 mM MnCl2 one hour after inoculation. After pre-incubation, IPTG was added (1 mM) and cells were induced at 15° C. for 16 hours, after which they were collected by centrifugation, resuspended in 5 ml Buffer A (50 mM NaH2PO4, 300 mM NaCl) +10 mM imidazole, pH 8.0 and stored at −80° C. For purification, cells were thawed, sonicated on ice (60 seconds) and a cleared lysate was then applied a 1 ml-bed volume column of Ni-NTA (Qiagen, USA), washed with 20 column volumes of Buffer A+30 mM imidazole and bound protein eluted with 1 ml of Buffer A+250 mM imidazole. For receptors, the elutate was dialyzed against TBS and for PP2Cs, fusion proteins were desalted by passage over a Sephadex G50 column.
# The purified receptors and phosphatases were then used in receptor assays where receptor activation is indicated by inhibition of phosphatase activity, as inferred from initial reaction velocities for PP2C-mediated hydrolysis of the synthetic phosphatase substrate pNPP in reactions containing 600 nM PP2C and either 0, 600, 1200, 2400 or 4800 nM receptor. The receptor assay buffer consisted of 33 mM Tris-OAc, pH 7.9, 66 mM KOAc, 0.1% BSA, 25 mM Mn(OAc)2, 0.1%13-ME and 50 mM pNPP. Immediately after mixing proteins and substrates, reactions were monitored for hydrolysis of pNPP at A405 at ˜2 minutes intervals using a Wallac plate reader. […]
row,Molecule,basal receptor activity (inhibition of HAB1 phosphatase activity in the absence of ABA)
1,"PYR1^CA4B: PYR1 quadruple mutant (V83F, M158I, F159V, K170W) (protein) HHHHHHMPSELTPEERSELKNSIAEFHTYQLDPGSCSSLHAQRIHAPPELVWSIVRRFDKPQTYKHFIKSCSVEQNFEMRVGCTRDVIFISGLPANTSTERLDILDDERRVTGFSIIGGEHRLTNYKSVTTVHRFEKENRIWTVVLESYVVDMPEGNSEDDTRIVADTVVKLNLQWLATVAEAMARNSGDGSGSQVT",dramatically increased basal PYR1 activity
2,"PYR1^CAc: PYR1 quadruple mutant (H60P, A89W, M158I, F159V) (protein) HHHHHHMPSELTPEERSELKNSIAEFHTYQLDPGSCSSLHAQRIHAPPELVWSIVRRFDKPQTYKPFIKSCSVEQNFEMRVGCTRDVIVISGLPWNTSTERLDILDDERRVTGFSIIGGEHRLTNYKSVTTVHRFEKENRIWTVVLESYVVDMPEGNSEDDTRIVADTVVKLNLQKLATVAEAMARNSGDGSGSQVT",dramatically increased basal PYR1 activity
3,"H60P: PYR1 (SEQ ID NO:1) receptor mutant with amino acid substitution H60P (protein, listed as Arabidopsis thaliana, thale cress PYR/PYL receptor, Pyrabactin resistance 1, abscisic acid receptor PYR1 (PYR1), ABI1-binding protein 6 (ABIP6), regulatory components of ABA receptor 11 (RCAR11), At4g17870, T6K21.50) MPSELTPEERSELKNSIAEFHTYQLDPGSCSSLHAQRIHAPPELVWSIVRRFDKPQTYKPFIKSCSVEQNFEMRVGCTRDVIVISGLPANTSTERLDILDDERRVTGFSIIGGEHRLTNYKSVTTVHRFEKENRIWTVVLESYVVDMPEGNSEDDTRMFADTVVKLNLQKLATVAEAMARNSGDGSGSQVT",increase basal activity of receptors
4,"V83F: PYR1 receptor mutant with amino acid substitution V83F (protein, synthetic mutated PYR/PYL receptor polypeptide PYR1 V83F) MPSELTPEERSELKNSIAEFHTYQLDPGSCSSLHAQRIHAPPELVWSIVRRFDKPQTYKHFIKSCSVEQNFEMRVGCTRDVIFISGLPANTSTERLDILDDERRVTGFSIIGGEHRLTNYKSVTTVHRFEKENRIWTVVLESYVVDMPEGNSEDDTRMFADTVVKLNLQKLATVAEAMARNSGDGSGSQVT",increase basal activity of receptors
5,"I84Q: PYR1 receptor mutant with amino acid substitution I84Q (protein, synthetic mutated PYR/PYL receptor polypeptide PYR1 I84Q) MPSELTPEERSELKNSIAEFHTYQLDPGSCSSLHAQRIHAPPELVWSIVRRFDKPQTYKHFIKSCSVEQNFEMRVGCTRDVIVQSGLPANTSTERLDILDDERRVTGFSIIGGEHRLTNYKSVTTVHRFEKENRIWTVVLESYVVDMPEGNSEDDTRMFADTVVKLNLQKLATVAEAMARNSGDGSGSQVT",increase basal activity of receptors

# The next lines start with the values.
row,basal receptor activity (inhibition of HAB1 phosphatase activity in the absence of ABA),Molecule
1,are not full CA receptors,"PYL6: wild-type ABA receptor PYL6 (SEQ ID NO:7) (protein, listed as Arabidopsis thaliana, thale cress PYR/PYL receptor, abscisic acid receptor PYL6, PYR1-like protein 6 (PYL6), ABI1-binding protein 5 (ABIP5), regulatory components of ABA receptor 9 (RCAR9), Bet v I allergen family protein, At2g40330, T7M7.15) MPTSIQFQRSSTAAEAANATVRNYPHHHQKQVQKVSLTRGMADVPEHVELSHTHVVGPSQCFSVVVQDVEAPVSTVWSILSRFEHPQAYKHFVKSCHVVIGDGREVGSVREVRVVSGLPAAFSLERLEIMDDDRHVISFSVVGGDHRLMNYKSVTTVHESEEDSDGKKRTRVVESYVVDVPAGNDKEETCSFADTIVRCNLQSLAKLAENTSKFS"
2,highly activated in the absence of ABA,"PYL9^CA4C: PYL9 mutant (A91W, Y160I, F161V) (protein) HHHHHHMMDGVEGGTAMYGGLETVQYVRTHHQHLCRENQCTSALVKHIKAPLHLVWSLVRRFDQPQKYKPFVSRCTVIGDPEIGSLREVNVKSGLPWTTSTERLELLDDEEHILGIKIIGGDHRLKNYSSILTVHPEIIEGRAGTMVIESFVVDVPQGNTKDETCIVVEALIRCNLKSLADVSERLASQDITQ"
3,are not full CA receptors,"PYL10: wild-type ABA receptor PYL10 (SEQ ID NO:11) (protein, listed as Arabidopsis thaliana, thale cress PYR/PYL receptor, abscisic acid receptor PYL10, PYR1-like protein 10 (PYL10), ABI1-binding protein 8 (ABIP8), regulatory components of ABA receptor 4 (RCAR4), At4g27920, T13J8.30) MNGDETKKVESEYIKKHHRHELVESQCSSTLVKHIKAPLHLVWSIVRRFDEPQKYKPFISRCVVQGKKLEVGSVREVDLKSGLPATKSTEVLEILDDNEHILGIRIVGGDHRLKNYSSTISLHSETIDGKTGTLAIESFVVDVPEGNTKEETCFFVEALIQCNLNSLADVTERLQAESMEKKI"
4,increase basal activity of receptors,"K170W: PYR1 receptor mutant with amino acid substitution K170W (protein, synthetic mutated PYR/PYL receptor polypeptide PYR1 K170W) MPSELTPEERSELKNSIAEFHTYQLDPGSCSSLHAQRIHAPPELVWSIVRRFDKPQTYKHFIKSCSVEQNFEMRVGCTRDVIVISGLPANTSTERLDILDDERRVTGFSIIGGEHRLTNYKSVTTVHRFEKENRIWTVVLESYVVDMPEGNSEDDTRMFADTVVKLNLQWLATVAEAMARNSGDGSGSQVT"
5,increase basal activity of receptors,"A89W: PYR1 receptor mutant with amino acid substitution A89W (protein, synthetic mutated PYR/PYL receptor polypeptide PYR1 A89W) MPSELTPEERSELKNSIAEFHTYQLDPGSCSSLHAQRIHAPPELVWSIVRRFDKPQTYKHFIKSCSVEQNFEMRVGCTRDVIVISGLPWNTSTERLDILDDERRVTGFSIIGGEHRLTNYKSVTTVHRFEKENRIWTVVLESYVVDMPEGNSEDDTRMFADTVVKLNLQKLATVAEAMARNSGDGSGSQVT"
6,highly activated in the absence of ABA,"PYL2^CA4C: PYL2 mutant (H65P, A93W, M1641, F165V) (protein) HHHHHHMSSSPAVKGLTDEEQKTLEPVIKTYHQFEPDPTTCTSLITQRIHAPASVVWPLIRRFDNPERYKPFVKRCRLISGDGDVGSVREVTVISGLPWSTSTERLEFVDDDHRVLSFRVVGGEHRLKNYKSVTSVNEFLNQDSGKVYTVVLESYTVDIPEGNTEEDTKIVVDTVVKLNLQKLGVAATSAPMHDDE"
